Source: patent US20190010224A1 (Merck Sharp & Dohme, published 2019)

Assays:
recombinant human IL-10 [1] = molecular target: T1, recombinant human IL-10 (human, UniProt P22301 19-178); assay: binding ELISA on immobilized recombinant human IL-10; potency relative to reference material; sample stored at 5 C, initial time point
T1 construct: Immobilized on ELISA microtiter plates; also called interleukin-10
Experimental: (§1) In the ELISA assay, individual dose response curves were generated by using a serial dilution of anti-IL10 reference material or test samples binding to recombinant human IL-10 immobilized on ELISA microtiter plates. Then, by using a SoftMax Pro GxP four-parameter logistic curve fitting analysis, EC₅₀ values of reference material as a control and test samples were determined and a reference-to-sample EC₅₀ ratio was calculated as relative potency for a test sample. Final results were reported as potency relative to reference material.

recombinant human IL-10 [2] = molecular target: T1, recombinant human IL-10; assay: binding ELISA on immobilized recombinant human IL-10; potency relative to reference material; sample stored at 5 C, 1 month
Experimental: as §1

recombinant human IL-10 [3] = molecular target: T1, recombinant human IL-10; assay: binding ELISA on immobilized recombinant human IL-10; potency relative to reference material; sample stored at 5 C, 6 months
Experimental: as §1

recombinant human IL-10 [4] = molecular target: T1, recombinant human IL-10; assay: binding ELISA on immobilized recombinant human IL-10; potency relative to reference material; sample stored at 5 C, 3 months
Experimental: as §1

T1 sequence (P22301 19-178 limits assumed): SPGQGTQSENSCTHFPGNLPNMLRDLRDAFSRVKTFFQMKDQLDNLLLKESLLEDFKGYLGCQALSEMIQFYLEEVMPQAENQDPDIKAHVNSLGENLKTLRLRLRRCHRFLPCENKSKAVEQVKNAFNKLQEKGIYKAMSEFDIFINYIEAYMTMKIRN

B1: anti-IL-10 hum12G8 (antibody, human IgG1, kappa, V domains shown)
VH: QVQLVESGGGVVQPGRSLRLSCAASGFTFSDYHMAWVRQAPGKGLEWVASITLDATYTYYRDSVRGRFTISRDNSKNTLYLQMNSLRAEDTAVYYCARHRGFSVWLDYWGQGTLVTVSS
VL: DIQMTQSPSSLSASVGDRVTITCKTSQNIFENLAWYQQKPGKAPKLLIYNASPLQAGVPSRFSGSGSGTDFTLTISSLQPEDFATYYCHQYYSGYTFGPGTKLELKR
notes: Humanized antibody expressed in CHO cells; It was tested as 50 mg/mL drug product in 10 mM histidine, 7% sucrose, 0.02% PS-80, pH 5.5; also called humanized 12G8; hu12G8
- Potency Binding ELISA/Biological Potency, % (reference-to-sample EC50 ratio) (recombinant human IL-10 [1]): 101%
- Potency Binding ELISA/Biological Potency, % (reference-to-sample EC50 ratio) (recombinant human IL-10 [2]): 115%
- Potency Binding ELISA/Biological Potency, % (reference-to-sample EC50 ratio) (recombinant human IL-10 [3]): 105%
- Potency Binding ELISA/Biological Potency, % (reference-to-sample EC50 ratio) (recombinant human IL-10 [4]): 99%
